Results on two molecules are retold here after patent US20220169714A1 (published 2022).

Experiment [1] concerns the target T1, recombinant human CXCL1 protein (human, UniProt P09341 35-107).
T1 sequence: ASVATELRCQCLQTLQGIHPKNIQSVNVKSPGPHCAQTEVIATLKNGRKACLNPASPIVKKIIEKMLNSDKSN
Kind of experiment: ELISA on coated human CXCL1 against coated BSA, scFv at 10 and 2 ug/mL, anti-Myc HRP, TMB. The protocol: The human CxCL1 protein was coated onto 96-well, 30 ng for well at 4° C. overnight. The plate was blocked by 3% skim milk in PBS 2 h at room temperature. The plate was washed 3 times with PBST and applied anti-human CXCL1 humanized version scFv antibodies at different dilution concentration. The anti-Myc mouse monoclonal antibody with HRP conjugate antibody was applied and developed with TMB solution.
For orientation: ELISA stands for enzyme-linked immunosorbent assay.

Experiment [2] concerns the target T1, recombinant human CXCL1 protein. The experiment in a line: apparent affinity-binding constant, in PBS; method not stated (FIG. 1B); in PBS.
Experiment [3] has as its target T2, mouse CXCL1 (mouse, UniProt P12850 25-96, limits assumed).
T2 sequence (looked up): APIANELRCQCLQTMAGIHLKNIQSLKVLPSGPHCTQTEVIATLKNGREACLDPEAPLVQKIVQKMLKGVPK
The experiment in a line: Western blot: recombinant CXCL1 loaded at 10, 20 and 30 ng, probed with HL2401.

The target of experiment [4] is T3, rat CXCL1 (rat, UniProt P14095 25-96, limits assumed).
T3 sequence (looked up): T2 sequence (looked up) with I3V, M15V, L20F, L29M, S31P, L58M
The experiment is described as above.

For experiment [5], the target named is T1, recombinant human CXCL1 protein. The experiment in a line: apparent affinity-binding constant, in serum 1:4 dilution; method not stated (FIG. 1B); serum, 1:4 dilution.
The target is the same in experiment [6]. The experiment in a line: apparent affinity-binding constant, in serum 1:40 dilution; method not stated (FIG. 1B); serum, 1:40 dilution.

Numbering of substitutions follows the chain as printed.

B1: HUM2401-ScFv_1 (humanized version 2) (scFv)
scFv: QVQLVESGGGLVQPGGSLRLSCKASGYTFTSYYIYWVRQAPGKGLEWIGEIDPSHGGPTFNEKFKNRFTISRDNSKNTLYLQMNSLRAEDTAVYYCTRESGTGAMDYWGQGTLVTVSSGGGGSGGGGSGGGARGGGGSDIQMTQSPSSLSASVGDRATISCKASQSVDYDGDSYVNWYQQKPGKAPKLLIYAASNLESGIPSRFSGSGSGTDFTLTISSLQPEDFATYYCQQSSEDPWTFGQGTKVEIKR
notes: Detected through a c-Myc tag; also called HumH2401scFv; Hum HL2401_scFv
Regarding B1, in experiment [1], the binding result was “binds”.

B2: anti-CXCL1 neutralizing monoclonal mouse antibody (HL2401) (antibody, V domains shown)
VH: EVKLVESGAELVKPGASVKLSCKASGYTFTSYYIYWVKQRPGQGLEWIGEIDPSHGGPTFNEKFKNKATLTVDKSSSTAYMQLSSLTSDDSAVYYCTRESGTGAMDYWGQGTTLTVSS
VL: DIVLTQSPASLAVSLGQRATISCKASQSVDYDGDSYVNWYQQKPGQPPKLLIYAASNLESRIPARFSGSGSGTDFTLNILPVEEDDGATYYCQQSSEDPWTFGGGTKLEIKR
notes: Mouse IgG from hybridoma clone HL2401, purified on protein G; also called CXCL1 mAb (HL2401); CXCL1 monoclonal antibody (HL2401)
On to B2, for which the Kd in experiment [2] was 0.176 mg/L; in experiment [5], 0.387 mg/L; in experiment [6] it was 0.252 mg/L. Also, the binding result in experiment [3] and in experiment [4] was “no binding (tested: 30 ng)” throughout.
